Assay results from patent US20140314784A1.

Experiments:
KO_1st loop [1] = assay: flow cytometry, CHO cells transiently transfected with the construct, 6C7 at 0.1 µg/ml, dot plot SSC-A against PE-A
KO_3rd loop [2] = assay: as above
KO_N-term [3] = assay: as above
KO_1st loop [4] = assay: flow cytometry, CHO cells transiently transfected with the construct, 6C7 at 0.05 µg/ml, dot plot SSC-A against PE-A
KO_3rd loop [5] = assay: as above
KO_N-term [6] = assay: as above

number in the positive gate (percent of cells) (KO_1st loop [1]): 50.1
number in the positive gate (percent of cells) (KO_3rd loop [2]): 52.8
number in the positive gate (percent of cells) (KO_N-term [3]): 52.8
number in the positive gate (percent of cells) (KO_1st loop [4]): 45.2
number in the positive gate (percent of cells) (KO_3rd loop [5]): 47
number in the positive gate (percent of cells) (KO_N-term [6]): 49.2
B1: 6C7 (antibody, V domains shown)
VH: QVQLVESGGGVVQPGRSLRLSCAASGFTFSNYVMHWVRQAPGKGLEWVAVIWYDGSNKYYADSVKGRFTISRDNSKNTLSLQMNSLRAEDTAVYYCERGEGYYGSGSRYRGYYYGMDVWGQGTTVTVSS
VL: DIQMTQSPSSLSASVGDRVTITCRASQGIRTDLGWYQQKPGKAPKRLIYAASSLQSGVPSRFSGSGSGTEFTLTISSLQPEDFATYYCLQHNSYPRTFGQGTKVEIK
